According to patent US20250388650A1 (ENOSI THERAPEUTICS, published 2025):

Columns and labels:
NRG1 = NRG1 (UniProt Q02297); assay: cell-based or functional assay
HF310 (HER3-500) = target: T1, HF310 (HER3-500) (human, UniProt P21860 20-519); assay: 125I-HRG cross-linking normalised by anti-HER3 Western blot densitometry
T1 construct: also called HER3-501; HF310T
Procedure: Binding was performed by mixing increasing amounts of supernatants (from 2.5 μl-20 μl of supernatant) with 5 nM of ¹²⁵I-HRG in a total volume of 20 μl of Hepes buffer (pH 7.5) at room temperature for 2 hours. 1 mM of the BS₃ crosslinker was added at the end of the binding assay to cross-link the bound molecules. Binding reactions were separated on an SDS-PAGE gel. The protein gel was dried and exposed to a film for 2 and 6 hours.
A parallel Western blot with an anti-HER3 antibody (R&D Systems), followed by densitometry was used to estimate relative HER3-derivative levels and then to normalize ligand binding to each protein based on equal number of binding sites, which are the equivalent to anti-HER3 binding sites.

[1] = target: EN2320 (HER3/Fc homodimer) (human, UniProt P21860 20-640); assay: SPR (Biacore 8K), trap on anti-human Fc chip
Sequence of EN2320 (HER3/Fc homodimer) (P21860 20-640 Y265A): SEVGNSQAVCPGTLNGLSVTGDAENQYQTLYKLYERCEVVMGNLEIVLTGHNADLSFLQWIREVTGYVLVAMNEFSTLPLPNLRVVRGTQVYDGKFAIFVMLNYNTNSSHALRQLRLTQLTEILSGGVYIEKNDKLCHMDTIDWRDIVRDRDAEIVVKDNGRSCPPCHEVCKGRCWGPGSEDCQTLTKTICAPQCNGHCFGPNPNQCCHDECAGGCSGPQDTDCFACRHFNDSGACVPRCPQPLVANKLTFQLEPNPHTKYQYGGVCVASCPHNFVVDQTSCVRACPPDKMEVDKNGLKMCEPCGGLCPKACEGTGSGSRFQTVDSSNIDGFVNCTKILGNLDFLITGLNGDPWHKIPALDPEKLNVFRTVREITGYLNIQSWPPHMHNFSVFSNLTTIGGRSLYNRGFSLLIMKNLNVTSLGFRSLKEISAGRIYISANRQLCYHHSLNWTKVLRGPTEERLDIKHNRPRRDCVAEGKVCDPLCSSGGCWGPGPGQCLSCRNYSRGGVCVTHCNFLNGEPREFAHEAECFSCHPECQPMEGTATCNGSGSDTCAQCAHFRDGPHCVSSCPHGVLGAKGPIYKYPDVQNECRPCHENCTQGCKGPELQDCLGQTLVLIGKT

T1 sequence (P21860 20-519 limits assumed): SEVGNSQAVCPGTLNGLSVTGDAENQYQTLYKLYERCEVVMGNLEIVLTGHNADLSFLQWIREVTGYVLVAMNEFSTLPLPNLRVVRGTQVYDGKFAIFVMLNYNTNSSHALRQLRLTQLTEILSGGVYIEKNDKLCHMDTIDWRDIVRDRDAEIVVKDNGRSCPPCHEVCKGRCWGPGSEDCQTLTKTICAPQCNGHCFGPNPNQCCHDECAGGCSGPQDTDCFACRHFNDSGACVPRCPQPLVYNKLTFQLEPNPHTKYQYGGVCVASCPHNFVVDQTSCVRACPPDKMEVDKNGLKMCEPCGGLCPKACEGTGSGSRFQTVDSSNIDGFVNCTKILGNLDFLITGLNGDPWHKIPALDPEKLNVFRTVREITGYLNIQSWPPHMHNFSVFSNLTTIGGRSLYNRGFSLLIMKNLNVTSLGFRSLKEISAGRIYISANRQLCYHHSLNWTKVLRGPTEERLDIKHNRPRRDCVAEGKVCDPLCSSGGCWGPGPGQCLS

An Approximate EC50, inhibition of NRG1-β-induced HER3 phosphorylation (MCF7 cells, phosphotyrosine ELISA) (NRG1) of 1.5 nM was found for “HER3^Y246A/Fc (from UniProt P21860 20-640) (Fc fusion)” in this work.

B1: heregulin (HRG) (ligand, UniProt Q02297-6 177-241, looked up)
chain: SHLVKCAEKEKTFCVNGGECFMVKDLSNPSRYLCKCPNEFTGDRCQNYVMASFYKHLGIEFMEAE
modifications: also: 125I label, site not given here
notes: also called HRG1β1
B1: binds (HF310 (HER3-500)).

B2: NRG1 (ligand, UniProt Q02297-6 177-241, looked up)
chain: B1 chain
notes: also called NRG1_R&D; NRG1-R&D
A Kd [1] of 0.389 nM, a koff [1] of 0.379 s⁻¹ and a kon [1] of 9.76e+08 M⁻¹ s⁻¹ were found for B2 in this work.

B3: NRG2-beta (ligand, UniProt O14511-3 341-405, looked up)
chain: HARKCNETAKSYCVNGGVCYYIEGINQLSCKCPNGFFGQRCLEKLPLRLYMPDPKQKHLGFELKE
A Kd [1] of 43.3 nM, a koff [1] of 0.0247 s⁻¹ and a kon [1] of 571000 M⁻¹ s⁻¹ were found for B3 in this work.
